Data as given in patent US20250057951A1, “DISCERNIBLE CELL SURFACE PROTEIN VARIANTS OF CD117 FOR USE IN CELL THERAPY” (UNIVERSITÄT BASEL, priority 2021, published 2025).
Positions count from the first letter of the chain named. Numbers in names are those of the source.

Experiments:
CD117 = experiment: Gene editing of CD117 in TF-1 cells, loss of SR-1 binding by FACS; format: cell-based, human; details: FACS 7 days after electroporation with Cas9, crRNA/tracrRNA or sgRNA and HDR template
Method: Gene editing of CD117 was performed in TF-1 cells using HDR. 12 different crRNAs were tested, six of them targeting amino acid residue E73 (Table 3), and six of them targeting amino acid residues 120-123 (Table 3).
Binding of antibody SR-1 to TF-1 cells was measured by FACS 7 days after electroporation with Cas9 protein, crRNA/tracrRNA or sgRNA and HDR template (Table 4).

antibody Refmab #1 [1] = experiment: Octet screen: binding of CD117 D1-2-3 variants to captured Refmab #1; details: nm shift at end of association, top analyte concentration (500 nM)
Method: A more sophisticated analysis of binding to the elected variants was performed with antibody Refmab #1. Binding of Refmab #1 to wt and variants (analyte) was measured in an Octet system RED96e or R8 at 25° C. with shaking at 1,000 rpm using 1× kinetic buffer (Sartorius, PN: 18-1105). First, the elected variants were screened for their ability to bind Refmab #1 using three different concentrations of analytes. Antibody Refmab #1 was captured by Anti-Human Fc capture biosensor (AHC) (Sartorius, PN: 18-5060) for 300 s at 0.5 to 1 μg/mL. As an analyte, human CD117 wt and variants, containing only domains 1, 2 and 3 (CD117 D1-2-3), was titrated at 500 nM, 50 nM and 5 nM. Association and dissociation of the analyte to Refmab #1 was monitored for 300 s and 900 s, respectively. Reference subtraction was performed against buffer only wells. AHC tips were regenerated using 10 mM Gly-HCl pH 1.7. Data were analyzed using the Octet Data Analysis software HT 12.0. Data were fitted (when possible) to a 1:1 binding model. Kinetic rates ka and […] globally fitted. Binding level of the elected variants were compared to wild type and are shown as percent in FIG. 7. For this qualitative analysis, the binding level of the top analyte concentration at end of the association step was used.

antibody Refmab #1 [2] = experiment: Octet titration, steady state KD of CD117 D1-2-3 variants to Refmab #1; format: binding; details: for Kd: 7 concentrations 2000-5 nM, steady state, two individual experiments; for change of KD compared to wild type CD117: KD variant vs wild type; for binding of Refmab #1 at 2000 nM variant: nm shift higher than 0.1 nm counts as binding
Method: To further characterize binding of Refmab #1 to CD117 D1-2-3 variants E73K, E73L, E73R, E73Y, D121H, D121K, S123K and S123F, the analytes were titrated at 7 different concentrations (from 2000 nM to 5 nM). Antibody Refmab #1 was captured by AHC biosensors for 300 s at 0.5 to 1 μg/mL. Association and dissociation to Refmab #1 was extended to 600 s and 1000 s, respectively. Steady state analysis was performed.

TF-1 cells = experiment: SCF-dependent proliferation, SCF titration on TF-1 cells with CD117 variants (CellTiter-Glo); format: cell-based, human
Method: In another experiment, SCF-dependent proliferation of variants E73K, E73Y, D121K, S123F and S123K was compared against wildtype CD117. TF-1 cells were seeded at a cell concentration of 150 000 cells/ml in sterile, white cell culture treated plates with transparent bottom in RPMI+GlutaMax+10% FCS. Cells were treated with a titration of SCF. After 3 days of incubation a CellTiter-Glo 2.0 assay (Promega) was performed, luminescence was read in a luminometer (Envision plate reader) and EC50's was determined. Two different experiments with triplicates in each experiment were performed.

Biotinylated Avitag-hSCF = target: T1, Biotinylated Avitag-hSCF (human, UniProt P21583 26-190, limits assumed, biotinylated Avitag); experiment: BLI (Octet), steady state: biotinylated SCF on streptavidin biosensor, CD117 D1-2-3 variant as analyte; KD relative to WT
T1 construct: Bought reagent; also called hSCF (Acros Biosystems SCF-H82E1)
Method: Domains 4 and 5 were used as a negative, non-binding control.
Association was monitored for 300 s and dissociation for 600 s. […] Reference subtraction was performed against buffer only wells. Biosensors were not regenerated and a new set of SA biosensors was used for each analyte. Data were analyzed using the Octet Data Analysis software HT 12.0. Steady state data analysis was performed due to the fast on/off nature of the interaction.

[3] = titration of SCF, 3 days, TF-1 cells with the CD117 variant

T1 sequence (P21583 26-190 limits assumed): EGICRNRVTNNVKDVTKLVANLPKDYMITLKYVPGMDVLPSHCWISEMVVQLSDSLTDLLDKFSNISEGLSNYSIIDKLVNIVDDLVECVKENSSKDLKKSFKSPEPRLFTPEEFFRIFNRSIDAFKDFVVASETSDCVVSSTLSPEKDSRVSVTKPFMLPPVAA
Chain of antibody Refmab #1 (as listed by the source): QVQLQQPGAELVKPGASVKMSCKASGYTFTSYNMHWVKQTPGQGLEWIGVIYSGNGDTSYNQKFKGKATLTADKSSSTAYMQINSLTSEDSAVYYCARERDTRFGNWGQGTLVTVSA
Chain of antibody Refmab #1 (as listed by the source): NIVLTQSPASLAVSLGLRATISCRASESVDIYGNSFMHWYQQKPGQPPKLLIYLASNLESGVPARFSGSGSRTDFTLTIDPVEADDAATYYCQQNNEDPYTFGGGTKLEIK

## KIT_E73_4: crRNA TATTCTCATTCGTTTCATCC, SEQ ID NO: 6, targets E73 of CD117 (chemistry not given here)
CD117
  KnockOut Efficiency (loss of binding of SR-1 compared to wild type cells): 60.1%

## KIT_E73_6: crRNA TAAGCAGAATGAATGGATCA, SEQ ID NO: 8, targets E73 of CD117 (chemistry not given here)
CD117
  KnockOut Efficiency (loss of binding of SR-1 compared to wild type cells): 60.5%

## KIT_E73_2: crRNA AAAGTCCATTTGACAAAGCC, SEQ ID NO: 4, targets E73 of CD117 (chemistry not given here)
CD117
  KnockOut Efficiency (loss of binding of SR-1 compared to wild type cells): 25.7%

## KIT_120_123_4: crRNA CTTGTTGACCGCTCCTTGTA, SEQ ID NO: 12, targets residues 120-123 of CD117 (chemistry not given here)
CD117
  KnockOut Efficiency (loss of binding of SR-1 compared to wild type cells): 60.0%

## S1231: variant of human CD117, printed S1231, probably substitution S123I
Antibody Refmab #1 [1]
  binding to Refmab #1 compared to wild type: strong decrease in binding

## S123F: variant of human CD117 with substitution S123F
Antibody Refmab #1 [1]
  binding to Refmab #1 compared to wild type: particular strong decrease in binding
Antibody Refmab #1 [2]
  Kd: 1500 nM
  change of KD compared to wild type CD117: around 1,500 fold
TF-1 cells; average of two experiments
  EC50 Average: 3.82 ± 0.19 ng/mL
TF-1 cells; [3]
  EC50 Experiment #1: 4.01 ng/mL
  EC50 Experiment #2: 3.63 ng/mL

B1: K193G (receptor)
extracellular domains 1, 2 and 3: QPSVSPGEPSPPSIHPGKSDLIVRVGDEIRLLCTDPGFVKWTFEILDETNENKQNEWITEKAEATNTGKYTCTNKHGLSNSIYVFVRDPAKLFLVDRSLYGKEDNDTLVRCPLTDPEVTNYSLKGCQGKPLPKDLRFIPDPKAGIMIKSVKRAYHRLCLHCSVDQEGGSVLSEKFILKVRPAFKAVPVVSVSKASYLLREGEEFTVTCTIKDVSSSVYSTWKRENSQTKLQEKYNSWHHGDFNYERQATLTISSARVNDSGVFMCYANNTFGSANVTTTLEVVD
notes: not in the list MOLECULES; also called human CD117 D1-2-3 variant K193G
Biotinylated Avitag-hSCF
  binding result: binds

B2: K193T (receptor)
extracellular domains 1, 2 and 3: B1 extracellular domains 1, 2 and 3 with G168T
notes: not in the list MOLECULES; also called human CD117 D1-2-3 variant K193T
Biotinylated Avitag-hSCF
  binding result: binds

B3: K193M (receptor)
extracellular domains 1, 2 and 3: B1 extracellular domains 1, 2 and 3 with G168M
notes: not in the list MOLECULES; also called human CD117 D1-2-3 variant K193M
Biotinylated Avitag-hSCF
  binding result: binds

B4: K193D (receptor)
extracellular domains 1, 2 and 3: B1 extracellular domains 1, 2 and 3 with G168D
notes: not in the list MOLECULES; also called human CD117 D1-2-3 variant K193D
Biotinylated Avitag-hSCF
  binding result: binds

B5: K193E (receptor)
extracellular domains 1, 2 and 3: B1 extracellular domains 1, 2 and 3 with G168E
notes: not in the list MOLECULES; also called human CD117 D1-2-3 variant K193E
Biotinylated Avitag-hSCF
  binding result: binds

B6: E73G (receptor)
extracellular domains 1, 2 and 3: B1 extracellular domains 1, 2 and 3 with E48G, G168K
notes: not in the list MOLECULES; also called human CD117 D1-2-3 variant E73G
Biotinylated Avitag-hSCF
  binding result: binds

B7: V120I (receptor)
extracellular domains 1, 2 and 3: B1 extracellular domains 1, 2 and 3 with V95I, G168K
notes: not in the list MOLECULES; also called human CD117 D1-2-3 variant V120I
Biotinylated Avitag-hSCF
  binding result: binds

B8: D121S (receptor)
extracellular domains 1, 2 and 3: B1 extracellular domains 1, 2 and 3 with D96S, G168K
notes: not in the list MOLECULES; also called human CD117 D1-2-3 variant D121S
Biotinylated Avitag-hSCF
  binding result: binds

B9: D121V (receptor)
extracellular domains 1, 2 and 3: B1 extracellular domains 1, 2 and 3 with D96V, G168K
notes: not in the list MOLECULES; also called human CD117 D1-2-3 variant D121V
Biotinylated Avitag-hSCF
  binding result: binds

B10: R122S (receptor)
extracellular domains 1, 2 and 3: B1 extracellular domains 1, 2 and 3 with R97S, G168K
notes: not in the list MOLECULES; also called human CD117 D1-2-3 variant R122S
Antibody Refmab #1 [1]
  binding to Refmab #1 compared to wild type: particular strong decrease in binding
Biotinylated Avitag-hSCF
  binding result: binds

B11: R122L (receptor)
extracellular domains 1, 2 and 3: B1 extracellular domains 1, 2 and 3 with R97L, G168K
notes: not in the list MOLECULES; also called human CD117 D1-2-3 variant R122L
Biotinylated Avitag-hSCF
  binding result: binds

B12: R122E (receptor)
extracellular domains 1, 2 and 3: B1 extracellular domains 1, 2 and 3 with R97E, G168K
notes: not in the list MOLECULES; also called human CD117 D1-2-3 variant R122E
Antibody Refmab #1 [1]
  binding to Refmab #1 compared to wild type: particular strong decrease in binding
Biotinylated Avitag-hSCF
  binding result: binds

B13: S123P: variant of human CD117 with substitution S123P (protein)
chain: QPSVSPGEPSPPSIHPGKSDLIVRVGDEIRLLCTDPGFVKWTFEILDETNENKQNEWITEKAEATNTGKYTCTNKHGLSNSIYVFVRDPAKLFLVDRPLYGKEDNDTLVRCPLTDPEVTNYSLKGCQGKPLPKDLRFIPDPKAGIMIKSVKRAYHRLCLHCSVDQEGKSVLSEKFILKVRPAFKAVPVVSVSKASYLLREGEEFTVTCTIKDVSSSVYSTWKRENSQTKLQEKYNSWHHGDFNYERQATLTISSARVNDSGVFMCYANNTFGSANVTTTLEVVDKG
Antibody Refmab #1 [1]
  binding to Refmab #1 compared to wild type: particular strong decrease in binding

B14: S123E: variant of human CD117 with substitution S123E (protein)
chain: B13 chain with P98E
Antibody Refmab #1 [1]
  binding to Refmab #1 compared to wild type: particular strong decrease in binding
Antibody Refmab #1 [2]
  binding of Refmab #1 at 2000 nM variant: do not show any binding

B15: D121R: variant of human CD117 with substitution D121R (protein)
chain: B13 chain with D96R, P98S
Antibody Refmab #1 [1]
  binding to Refmab #1 compared to wild type: strong decrease in binding

B16: S123M: variant of human CD117 with substitution S123M (protein)
chain: B13 chain with P98M
Antibody Refmab #1 [1]
  binding to Refmab #1 compared to wild type: strong decrease in binding

B17: S123Q: variant of human CD117 with substitution S123Q (protein)
chain: B13 chain with P98Q
Antibody Refmab #1 [1]
  binding to Refmab #1 compared to wild type: strong decrease in binding

B18: E73R: variant of human CD117 with substitution E73R (protein)
chain: B13 chain with E48R, P98S
Antibody Refmab #1 [1]
  binding to Refmab #1 compared to wild type: particular strong decrease in binding
Antibody Refmab #1 [2]
  Kd: 958 nM
  change of KD compared to wild type CD117: around 1000 fold

B19: D121Y: variant of human CD117 with substitution D121Y (protein)
chain: B13 chain with D96Y, P98S
Antibody Refmab #1 [1]
  binding to Refmab #1 compared to wild type: particular strong decrease in binding

B20: D121H: variant of human CD117 with substitution D121H (protein)
chain: B13 chain with D96H, P98S
Antibody Refmab #1 [1]
  binding to Refmab #1 compared to wild type: particular strong decrease in binding
Antibody Refmab #1 [2]
  binding of Refmab #1 at 2000 nM variant: No binding

B21: D121T: variant of human CD117 with substitution D121T (protein)
chain: B13 chain with D96T, P98S
Antibody Refmab #1 [1]
  binding to Refmab #1 compared to wild type: particular strong decrease in binding

B22: E73L: variant of human CD117 with substitution E73L (protein)
chain: B13 chain with E48L, P98S
Antibody Refmab #1 [2]
  Kd: 485 nM
  change of KD compared to wild type CD117: around 500 fold
